According to patent publication US20200157194A1 (Regeneron, published 2020):
Positions count from the first letter of the chain named.

B1: H2bM2783N (antibody, mouse IgG2, V domains shown)
VH: EVQLLESGGGLVQPGGSLRLSCAASGFTFSSYVMNWVRQAPGKGLEWVSAISGSGGSTYYADSVKGRSTISRDNSKNTLYLQMNSLRAEDTAIYYCAKGDIAAIVFDAFDIWGQGTVVTVSS
VL: DIQMTQSPSSLSASVGDRVTITCQASQDISSCLNWYQHKPGKAPKLLIYDASYLETGVPSRFSGSGSGTDFTFTISSLQPEDIATYYCQQYDNLPYTFGQGTKLEIK
notes: H2M prefix = mouse IgG2 Fc (here H2bM); also called H2M2783N
B2: H4H2783N2 (antibody, human IgG4, V domains shown)
VH: B1 VH
VL: B1 VL with C32A
notes: H4H prefix = human IgG4 Fc
B3: H4H2784N (antibody, human IgG4, V domains shown)
VH: QVQLVESGGGVVQPGRSLRLSCAASGFTFSSYGMHWVRQAPGKGLEWVTIIWHDGSNKYYADSVKGRFTISRDNSKNTLYLQMNSVRAEDTAVYYCARDEDFFDYWGQGTLVTVSS
VL: not shown
notes: H4H prefix = human IgG4 Fc
B4: H4H2889N (antibody, human IgG4, V domains shown)
VH: QVQLQESGPGLVKPSETLSLTCTVSGGSISNSYWSWIRQPPGKGLEWIGYIYYSGNTNYNPSLKSRVTISVDTSKNQFSLKLSSVTAADTAVYYCARVNDYSNYDSYYYGMDVWGQGTTVTVSS
VL: AIQMTQSPSSLSASVGDRVTITCRASQGIRNDLGWYQQKPGKAPKLLIYAASSLQSGVPSRFSGSGSGTDFTLTISSLQPEDFATYYCLQDYNYPPTFGQGTKVDIK
notes: H4H prefix = human IgG4 Fc
B5: H4H2892N (antibody, human IgG4, V domains shown)
VH: QVQLVESGGGVVQPGRSLRLSCAASGFTFSSYGIHWVRQAPGKGLEWVAILWYDGSNKYYADSVKGRFTISRDNSKTTLYLQMNSLRAEDTAVYYCARENYNDLNFDLWGRGTLVTVSS
VL: DIQLTQSPSFLSASVGDRVTITCWASQGISSYLAWYQHKPGKAPKLLIYAASTLQSGVPSRFSGSGSGIEFTLTISSLQPEDFATYYCQQLKSYPPWTFGQGTKVEIR
notes: H4H prefix = human IgG4 Fc
B6: H4H2895N (antibody, human IgG4, V domains shown)
VH: EVQLVESGGGLVQPGGSLRLSCAASGFTVSSNYMSWVRQAPGKGLEWVSVIYSGGNTYYADSVKGRFTISRHNSKNTLYLQMNSLRAEDTAVYYCARDLGIKSDYWGQGTLVTVSS
VL: EIVLTQSPDFQSVTPKEKVTITCRASQSIGTTLHWYQQKPDQSPKLLIKYVSQSLSGVPSRFSGSGSGTDFTLTINSLEAEDAATYYCHQSSSLPWTFGQGTKVEIK
notes: H4H prefix = human IgG4 Fc
B7: H4H2780N (antibody, human IgG4, V domains shown)
VH: EVQLVESGGGLVKPGGSLRLSCAASGFTFSTYSMNWVRQAPGKGLEWVSSISSGSSYIYYTDSVKGRFTISRDNAKNSLYLQMNSLRAEDTAVYYCARFGSYYYFGFDVWGQGTTVTVSS
VL: DIQMTQSPSSLSASVGDRVTITCRASQGISNYLAWYQQKPGKVPKLLIFSASTLQSGVPSRFSGSGSGPDFTLTVSSLQPEDVATYYCQKYNSAPFAFGPGTKVDIK
notes: H4H prefix = human IgG4 Fc
B8: H4H6269P (antibody, human IgG4, V domains shown)
VH: QVQLQESGPGLVKPSQTLSLTCTVSGGSISSGGYYWTWIRQHPGKGLEWIGYIYYSGSTYYNPSLKSRVTMSVDTSKNQFSLKLSSVTAADTAVYYCARLLDFDYWGQGTLVTVSS
VL: B4 VL with T69R, T85S, Y92H, P96L, Q100G, D105E
notes: H4H prefix = human IgG4 Fc

Legend:
[1] = biological target: T1, human GREM1 (hGREM1-His; SEQ ID NO: 595) (human, UniProt O60565 25-184); assay: SPR, Biacore T200, 25 C, mAb captured, hGREM1-His injected;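 also: Heparin-supplemented HBS-EP+ used as running buffer, association and dissociation phases followed, Kd computed as koff divided by kon and half-life derived from koff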
T1 construct: also called biotin-hGREM1-His; recombinant human GREM1 protein
T1 sequence: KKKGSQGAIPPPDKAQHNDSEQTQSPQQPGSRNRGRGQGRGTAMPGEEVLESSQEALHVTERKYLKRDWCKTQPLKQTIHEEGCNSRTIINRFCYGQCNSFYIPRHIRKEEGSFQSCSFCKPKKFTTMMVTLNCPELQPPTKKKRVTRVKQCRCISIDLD

[2] = biological target: T2, recombinant human GREM1 (hGREM1-His; C-terminal 10His tagged, R&D, #5190-GR) (human, UniProt O60565 25-184, limits assumed); assay: cell-based or functional assay
T2 sequence: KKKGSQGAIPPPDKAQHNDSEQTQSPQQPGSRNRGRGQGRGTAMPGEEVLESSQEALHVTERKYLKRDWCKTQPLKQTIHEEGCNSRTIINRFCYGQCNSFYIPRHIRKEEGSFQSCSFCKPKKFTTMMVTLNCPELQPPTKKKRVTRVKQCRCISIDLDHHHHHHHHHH

[3] = biological target: T2, recombinant human GREM1 (hGREM1-His; …); assay: cell-based or functional assay; remark: listed apart in the source
[4] = biological target: T2, recombinant human GREM1 (hGREM1-His; …); assay: BLI Octet, mAb captured, 100 nM GREM1;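 also: octet Red96 biolayer interferometry at 25 °C in pH 7.4 HEPES saline buffer, antibodies held on anti-human IgG Fc capture biosensors, then exposed to GREM1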
[5] = biological target: T2, recombinant human GREM1 (hGREM1-His; …); assay: BLI Octet, mAb captured, 100 nM GREM1 + 5 uM heparin;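 also: octet Red96 biolayer interferometry at 25 °C, antibodies captured on anti-human IgG Fc biosensors, pH 7.4 HEPES buffer with 0.1 mg/mL BSA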
[6] = biological target: T1, human GREM1 (hGREM1-His; SEQ ID NO: 595); assay: SPR, Biacore T200, 37 C, mAb captured, hGREM1-His injected;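 also: HBS-EP running buffer containing heparin, association and dissociation phases tracked, KD computed as koff over kon and half-life derived from koff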
[7] = biological target: T2, recombinant human GREM1 (hGREM1-His; …); assay: BLI Octet, mAb captured, 100 nM GREM1 without vs with 5 uM heparin;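 also: octet Red96 biolayer interferometry at 25 °C, antibodies captured on anti-human IgG Fc biosensors, association of GREM1 measured with versus without heparin in HEPES-buffered saline, pH 7.4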
[8] = biological target: T1, human GREM1 (hGREM1-His; SEQ ID NO: 595); assay: competition ELISA, biotin-hGREM1-His (100 pM) binding to coated hBMP4

Binder	Kd [1]	koff [1]	kon [1]	t1/2 [1]	IC50 [M], inhibition of hGREM1-His, W-20-17/BRE-luc luciferase (100 pM hBMP4, 10 nM hGREM1-His) [2]	hGREM1-His Inhibition IC50, M; W-20-17 cell differentiation assay (alkaline phosphatase) [3]	Binding Signal with 30 sec Association [4]	Binding Signal with 300 sec Association [4]	Binding Signal with 30 sec Association [5]	Binding Signal with 300 sec Association [5]	Kd [6]	koff [6]	kon [6]	t1/2 [6]	Reduction in Signal from Heparin at 30 sec [7]	Reduction in Signal from Heparin at 300 sec [7]	% blocked at maximum Ab tested (20 nM) [8]	IC50 [8]
B1	7.4 nM	0.0015 s⁻¹	202000 M⁻¹ s⁻¹	7.7 min	–	–	–	–	–	–	–	–	–	–	–	–	–	–
B2	15.7 nM	0.000476 s⁻¹	30400 M⁻¹ s⁻¹	24 min	1.3e-09 M	5.6 nM	0.29 nm	0.47 nm	0.01 nm	0.29 nm	61.1 nM	0.000849 s⁻¹	13900 M⁻¹ s⁻¹	14 min	0.28 nm	0.18 nm	76%	< 0.025 nM
B3	17 nM	0.00105 s⁻¹	61800 M⁻¹ s⁻¹	11 min	9.5e-10 M	24 nM	0.24 nm	0.52 nm	0.06 nm	0.46 nm	13.8 nM	0.00197 s⁻¹	142000 M⁻¹ s⁻¹	6 min	0.18 nm	0.06 nm	59%	0.45 nM
B4	1.89 nM	0.000118 s⁻¹	62700 M⁻¹ s⁻¹	98 min	1.2e-09 M	5.4 nM	0.2 nm	0.46 nm	0.05 nm	0.44 nm	4.06 nM	0.000422 s⁻¹	104000 M⁻¹ s⁻¹	27 min	0.15 nm	0.02 nm	86%	< 0.025 nM
B5	1.22 nM	0.000173 s⁻¹	142000 M⁻¹ s⁻¹	67 min	9.5e-10 M	4.4 nM	0.2 nm	0.49 nm	0.15 nm	0.49 nm	2.35 nM	0.0004 s⁻¹	171000 M⁻¹ s⁻¹	29 min	0.05 nm	0 nm	82%	0.17 nM
B6	0.778 nM	0.000132 s⁻¹	170000 M⁻¹ s⁻¹	88 min	5.8e-10 M	1.9 nM	0.15 nm	0.5 nm	0.22 nm	0.54 nm	1.23 nM	0.000215 s⁻¹	175000 M⁻¹ s⁻¹	54 min	-0.07 nm	-0.04 nm	94%	0.036 nM
B7	12.4 nM	0.00088 s⁻¹	71200 M⁻¹ s⁻¹	13 min	–	–	0.13 nm	0.58 nm	0.13 nm	0.58 nm	28 nM	0.00161 s⁻¹	57400 M⁻¹ s⁻¹	7 min	0 nm	0 nm	69%	0.1 nM
B8	0.625 nM	6.32e-05 s⁻¹	101000 M⁻¹ s⁻¹	183 min	–	–	0.15 nm	0.6 nm	0.14 nm	0.52 nm	1.98 nM	0.000254 s⁻¹	128000 M⁻¹ s⁻¹	46 min	0.01 nm	0.08 nm	73%	0.026 nM
